A word on the Kd: it is the constant that tells how readily two partners part at equilibrium.

The text below walks through data of paper PMC4883009 (Biochemistry, 2016).

Test [1] concerns bsSecA783 F652-GS(10)-PhoAss Cys22-IAEDANS. In words: Signal peptide competition-binding assay by FRET. The arrangement: species or system B. subtilis. The settings on record: 5-fold molar excess of unlabeled SP22; data not shown.
Test [2] has as its system bsSecA783 F652-GS(5)-KRRLamBss Cys29-IAEDANS. As to the kind of experiment: Signal peptide competition-binding assay by FRET. Also on record: species or system B. subtilis. Particulars: 5-fold molar excess of unlabeled SP22; data not shown.
Test [3] addresses E. coli alkaline phosphatase signal peptide SP22, IANBD-labeled (E. coli). As to the kind of experiment: fluorescence polarisation.
Test [4] deals with IANBD-labeled SP22. As to the kind of experiment: SecA-signal peptide binding affinity by fluorescence anisotropy. Also on record: species or system E. coli. (In fluorescence polarisation assays a small probe gives low polarisation when free and higher when bound to something large.)

As for MKQSTIALALLPLLFTPVTKAC-NH2 [SP22], the “reduction of energy transfer efficiency” value in test [1] and in test [2] was “approximately 50%” throughout.
In test [3], “bsSecA783-KRRLamBss (from UniProt P28366 1-783)” yielded a dissociation constant Kd of 13 µM.
As for “bsSecA783-PhoAss (from UniProt P28366 1-783)”, the Kd in test [3] was found to be 4.5 µM. Against the preceding molecule, the Kd is about 2.9-fold lower.
On the same count and under the same terms, in the case of “bsSecA841 (from UniProt P28366 1-841) (enzyme)” it was 1.9 µM; in that of “bsSecA841-KRRLamBss (from UniProt P28366 1-841)”, 14 µM.
Same read-out and setting: to “bsSecA841-PhoAss (from UniProt P28366 1-841)” belongs 4.6 µM.

B1: bsSecA783: carboxy-terminally truncated B. subtilis SecA lacking the CTL domain (protein, UniProt P28366 1-783, looked up, fragment)
chain: MLGILNKMFDPTKRTLNRYEKIANDIDAIRGDYENLSDDALKHKTIEFKERLEKGATTDDLLVEAFAVVREASRRVTGMFPFKVQLMGGVALHDGNIAEMKTGEGKTLTSTLPVYLNALTGKGVHVVTVNEYLASRDAEQMGKIFEFLGLTVGLNLNSMSKDEKREAYAADITYSTNNELGFDYLRDNMVLYKEQMVQRPLHFAVIDEVDSILIDEARTPLIISGQAAKSTKLYVQANAFVRTLKAEKDYTYDIKTKAVQLTEEGMTKAEKAFGIDNLFDVKHVALNHHINQALKAHVAMQKDVDYVVEDGQVVIVDSFTGRLMKGRRYSEGLHQAIEAKEGLEIQNESMTLATITFQNYFRMYEKLAGMTGTAKTEEEEFRNIYNMQVVTIPTNRPVVRDDRPDLIYRTMEGKFKAVAEDVAQRYMTGQPVLVGTVAVETSELISKLLKNKGIPHQVLNAKNHEREAQIIEEAGQKGAVTIATNMAGRGTDIKLGEGVKELGGLAVVGTERHESRRIDNQLRGRSGRQGDPGITQFYLSMEDELMRRFGAERTMAMLDRFGMDDSTPIQSKMVSRAVESSQKRVEGNNFDSRKQLLQYDDVLRQQREVIYKQRFEVIDSENLREIVENMIKSSLERAIAAYTPREELPEEWKLDGLVDLINTTYLDEGALEKSDIFGKEPDEMLELIMDRIITKYNEKEEQFGKEQMREFEKVIVLRAVDSKWMDHIDAMDQLRQGIHLRAYAQTNPLREYQMEGFAMFEHMIESIEDEVAKFVMKAEIENN
As to B1, the “higher affinity for SP22 compared to full-length bsSecA841” value in test [4] is “approximately 4 fold”.
